Measured values taken from the supplement of paper PMC10126150.
± gives the standard deviation of the averaged measurements.

System: ATP
Experiment: switch fluorescence ratio, 500 uM ATP over buffer (Cy3 cluster intensity, sum of 5 cycles each) (fold (ratio)); higher = stronger signal-on switching upon ATP binding; sequences stand for … in TCGTCGGCAGCGTCAGATGTGTATAAGAGACAGTTTTTTTTTTTTTTTTTTTTTTTTT…TC
Conditions: aptamer strand: ATP DNA aptamer (quencher-CACCTGGGGGAGTATTGCGGAGGAAGG + anchor), 100 nM annealed; ATP concentration: 500 uM
Summary of the method: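 Imaging in selection buffer was followed by imaging after 15 min with 500 uM ATP at 22 °C, for Cy3-labelled switching-strand clusters annealed to 100 nM quencher-labelled ATP aptamer on a modified Illumina MiSeq flow-cell. Five of these buffer/ATP cycles ran, separated by NaOH stripping and re-annealing. The fluorescence ratio per cluster is summed target-cycle over summed buffer-cycle Cy3 intensity, averaged per switch-domain sequence; clusters outside 100-1000 RFU were removed.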
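Note: ATP exposure 15 min at 22 °C before imaging.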

Sequence	switch fluorescence ratio
GGGCAAAGTA	0.924 ± 0.039
CACATTTGGA	0.985 ± 0.051
CAGCTAACTT	1.0399 ± 0.00052
GGGGGTCTGT	0.972 ± 0.013
AGATTTGAGC	0.972 ± 0.035
ATCAACTTAT	1.02 ± 0.044
GAGGGGGTCT	1.01 ± 0.064
GCGCTGGTTA	0.9941 ± 0.0027
TTCGTGTACG	1.02 ± 0.019
TTTAGCGTGG	1.05 ± 0.05
TCATATTATT	1 ± 0.033
AGGTTGGATC	0.995 ± 0.088
TTTGATAAGT	1.06 ± 0.07
TTTTTTCTTT	1.01 ± 0.033
TGGGCGAATC	0.998 ± 0.014
AGCCGGGGGC	1.004 ± 0.002
ACAACTCAGG	1.22 ± 0.022
GAAGGAGGTT	1 ± 0.012
TTATATTGGT	0.974 ± 0.028
GGGGGGGAT	1.02 ± 0.025
AAGTTCAAGA	0.99 ± 0.045
GTGGTAGGGA	0.98 ± 0.019
CAAAAAAAAG	1.03 ± 0.023
AAGCCTGAGG	1.015 ± 0.0084
CGGATTAGAG	0.9641 ± 0.0032

Sequence	switch fluorescence ratio
TTTGTTATAT	0.9839 ± 0.0039
CGAATCAAAC	1.52 ± 0.032
CCCGGTGTGT	1.65 ± 0.025
TGTATGTTAG	0.9477 ± 0.0061
TTTAAGTTTG	0.989 ± 0.029
ATTGCTTTTT	0.9834 ± 0.0066
CAGGGTATTT	0.981 ± 0.032
TCATTGGTTT	0.998 ± 0.032
ATTGTTAATG	0.98 ± 0.046
CGGCACCCTT	0.997 ± 0.017
GAAAATTGGG	0.983 ± 0.015
GCATGGGGCG	1.037 ± 0.0041
GGGGGCTGGG	0.992 ± 0.025
AGTTATTATT	0.963 ± 0.0055
GCGAGGGGCG	1 ± 0.062
TTATCAGTGG	0.9707 ± 0.002
TTAAGAAGCG	1.01 ± 0.06
TATCTGGGTA	0.978 ± 0.01
TGGAAGGGTT	0.994 ± 0.028
GGGTGGATGG	0.985 ± 0.024
TTTGTGGACG	1.08 ± 0.08
ACCCTGGGGT	2.14 ± 1.6
AACGTTGGGG	0.967 ± 0.017
TCGTTACAGA	1.02 ± 0.045
TAAACCGCGG	1.01 ± 0.059

Sequence	switch fluorescence ratio
ATGAAAAATT	1.01 ± 0.031
GCGAAAGTTT	1.01 ± 0.013
GTAAAAAGTG	1.05 ± 0.17
TTTTCAGAAG	0.997 ± 0.013
GCTTCTTGTT	1 ± 0.015
TAGTAATCGA	1.02 ± 0.018
TTGTTTAACT	1.02 ± 0.026
CCAAAGAGGG	0.993 ± 0.02
GTTTGAGGGC	0.985 ± 0.052
TTTACTGGCA	1.05 ± 0.076
GAGGGGTGAC	0.979 ± 0.021
GTACGGTTTT	0.994 ± 0.073
AATAGCGACT	1.026 ± 0.0052
CCACTTTCCT	1.2 ± 0.021
TTTTGCGAAG	1.03 ± 0.027
TTCAAATGAG	0.98 ± 0.044
ATTAAGAGGC	1.02 ± 0.06
AATTTACTGG	1.13 ± 0.084
AAACGGACGC	1.2 ± 0.023
AGAGGGGTCT	1.02 ± 0.043
GACGTTATGT	1 ± 0.019
CATGAGGTCG	0.989 ± 0.047
TCATGTTCGG	1.02 ± 0.034
GGTTATGCTG	1.03 ± 0.1
AGTGTCCGAT	0.9895 ± 0.0053

Sequence	switch fluorescence ratio
TCGGGGTCGG	1.03 ± 0.016
GGGTTTTTTG	1 ± 0.031
TCGTATCGTA	0.975 ± 0.013
CCGTGATATG	2.492 ± 0.0084
CTGCAGTTGA	1.04 ± 0.024
AACGGGTTAC	1.14 ± 0.019
AACGATGTAA	0.9951 ± 0.0059
GTGGTTATCG	1.02 ± 0.043
GCTATTGGCA	1.014 ± 0.01
GGTGCTTTGG	0.993 ± 0.046
GGATAAGGAA	0.9698 ± 0.0076
GTGCGCATGG	1.13 ± 0.067
GATTATGGTT	0.9891 ± 0.003
CTCATAACAT	1.01 ± 0.032
ATCGTTCGGC	0.976 ± 0.037
GCTGTAGGTC	1.04 ± 0.013
TGAGTAACGG	1.02 ± 0.04
CTTATAGCTT	0.987 ± 0.033
ACTATGACGT	1.04 ± 0.017
GGGGGCGGCA	0.988 ± 0.042
GTAAGAAGTG	0.941 ± 0.033
CGTAGGGGTC	0.959 ± 0.042
GAAAAACCTT	3.83 ± 1.6
TTAAGATGTT	0.993 ± 0.016
ATCTGGGGGA	0.979 ± 0.046

Sequence	switch fluorescence ratio
GAGTTATGGG	0.9963 ± 0.0048
AGAGGGTTTG	0.998 ± 0.025
GGTGGTGGCC	1.01 ± 0.023
TGCCGGGGGG	0.99 ± 0.011
AATATTTTAT	1.014 ± 0.0022
TTGTAGGAAC	0.9978 ± 0.0037
CAGGTGAGTG	1.251 ± 0.0088
CGTCAAATAT	1.13 ± 0.041
GATCAAGGCA	1.017 ± 0.0012
TAAGGTGGGG	0.987 ± 0.021
TTTGAGTATA	0.992 ± 0.031
GGGTCGTGCT	1.03 ± 0.022
GAAGGGGGTG	1.02 ± 0.039
GCTTGATCCA	1.01 ± 0.018
TGGGGGAGCG	0.99 ± 0.019
GTTTTTAAGA	1.03 ± 0.022
GAAATAAGGT	0.99 ± 0.024
TGAAGTCGCT	1.02 ± 0.0048
TTAGTAAGTT	1.11 ± 0.12
GACATCCCCT	1.04 ± 0.047
TAACCCCGCT	1.42 ± 0.25
TAGGACCTGT	0.9849 ± 0.0073
CAGGCAGGTC	0.997 ± 0.024
TTTTGCAGCT	1 ± 0.019
GCGAGAAGAG	1.003 ± 0.0092

Sequence	switch fluorescence ratio
ATGTACGAAT	1.004 ± 0.0025
GTAGTATTGG	0.982 ± 0.028
GGGCATTGTG	1.03 ± 0.056
CGTGGGGAGT	1 ± 0.012
ATTGTAGGAG	0.9966 ± 0.0058
AAGTGCAGCC	1.01 ± 0.023
TTTTGAGGCT	1.01 ± 0.073
AAGGGAGATT	0.968 ± 0.011
GGGGAAATTT	1.02 ± 0.028
ATATCAATGT	1 ± 0.028
TTCATCAGCG	1.05 ± 0.083
TTCTTTATTT	0.993 ± 0.027
CGGCCCCCGT	1.4 ± 0.46
GTTGGCACTG	1.036 ± 0.0053
TACGAGCTGG	0.995 ± 0.01
AGGGGCAAAC	1.45 ± 0.078
TAGTGCTGCA	0.9692 ± 0.0012
CGTTAAATTT	0.994 ± 0.033
GTTTGATCAG	0.941 ± 0.011
TAAGATGTAA	1.03 ± 0.011
GACTAGGTCG	1.16 ± 0.22
AAACATATAT	1.018 ± 0.0098
ATGTGTGGGC	1.01 ± 0.021
TTTTTGGAGG	1 ± 0.034
CCCGGGGTCT	1.02 ± 0.026

Sequence	switch fluorescence ratio
ACAGTAAGTT	1.07 ± 0.016
CGAGTTAAGC	0.965 ± 0.02
AAAACGACAG	1.04 ± 0.013
TTTTGAATTA	1.01 ± 0.032
AAGATGCTTC	1 ± 0.011
TTCAAGCAGA	1.034 ± 0.0087
GAGTTTGACC	0.965 ± 0.03
TGTGGATAGG	1.03 ± 0.012
ATAGAATCAG	0.975 ± 0.038
TCAGCGAATT	0.98 ± 0.015
GTAACTGGGA	1.009 ± 0.0093
GATGAGGTGT	1.01 ± 0.036
GTTGGGGATG	1.02 ± 0.026
GGCGATGGGG	0.979 ± 0.023
CATGGGGTTT	1.01 ± 0.018
TTCGGCGACG	1.0016 ± 0.00078
GTAGGATTTC	1.01 ± 0.027
GATATTTTGT	0.997 ± 0.031
TTATAAG	1.003 ± 0.0067
TAAAAGCCTT	1.06 ± 0.043
GTTGTAGTCG	1.02 ± 0.038
CCGGTCTGGC	1.01 ± 0.013
TTTAGGGAGC	1.04 ± 0.029
CCACGCCAGG	2.79 ± 0.084
GACGACGGAG	0.969 ± 0.034

Sequence	switch fluorescence ratio
GCGGTCAGCT	0.99 ± 0.087
TGAAGTCTGC	0.968 ± 0.036
CGGATGGCCT	1.03 ± 0.019
GAATCATAGT	1.003 ± 0.0083
CGGGATGCGC	1.04 ± 0.066
ACAATGGCAC	1.06 ± 0.029
GATTTATTCG	0.983 ± 0.014
GCGGGGGAAT	1.05 ± 0.071
AAAGGGGGAG	0.997 ± 0.011
AATCTGATGG	0.974 ± 0.044
CACTGACTTA	1.19 ± 0.032
GGGGATGAAT	1 ± 0.024
CGTCGAATAT	1.016 ± 0.0016
CCTATTTGTA	0.974 ± 0.051
ACTTTTGAAA	0.994 ± 0.014
AGGCAGGACT	1.02 ± 0.044
GCAAGAGATA	1.02 ± 0.017
GGAAGTTACA	1.06 ± 0.016
AGAGTGTTTT	1 ± 0.028
TTTACTTGTA	1.01 ± 0.023
GTTGGGAGGG	0.985 ± 0.012
AAGTGCCGAG	0.989 ± 0.027
ACCGTGTCAA	1.01 ± 0.032
TTGCATTTAA	1.0047 ± 0.00053
GTGTACTCGA	1.04 ± 0.019
